From patent US20140178329A1 (INSTITUCIO CATALANA DE RECERCA I ESTUDIS AVANCATS ICREA, published 2014)

Columns and labels:
human BCMA-Fc [1] = molecular target: T1, human BCMA-Fc (human, UniProt Q02223 2-54, limits assumed); assay: binding test not named (data not shown)
T1 construct: Generated in-house; not shown: Fc portion of human IgG1
T1 sequence (looked up): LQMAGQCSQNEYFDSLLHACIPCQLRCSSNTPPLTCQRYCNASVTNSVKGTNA

human TACI-Fc [2] = molecular target: T2, human TACI-Fc (human, UniProt O14836 2-160, limits assumed); assay: binding test not named (data not shown)
T2 construct: Generated in-house; not shown: Fc portion of human IgG1
T2 sequence (looked up): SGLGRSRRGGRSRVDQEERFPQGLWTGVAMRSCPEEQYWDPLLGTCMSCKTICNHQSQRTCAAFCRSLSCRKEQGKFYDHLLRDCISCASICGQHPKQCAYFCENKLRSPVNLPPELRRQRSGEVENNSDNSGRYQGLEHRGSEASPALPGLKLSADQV

human BCMA-Fc [3] = molecular target: T1, human BCMA-Fc; assay: SPR (Biacore), affinities of R206E for BCMA-Fc and TACI-Fc compared
Procedure: (§1) FIG. 10: Surface Plasmon Resonance sensorgrams to illustrate binding of TACI-Fc and BCMA-Fc to WT and R206E-APRIL. Sensorgrams of human (Panel A) and mouse (Panel B) receptors binding to WT and R206E-APRIL. Stepwise increments in the curves represent sequential injections of receptor at the following concentrations: […]. In some cases, no value for affinity was calculated due to a low binding response or high drift.
In order to further assess the binding properties of the mutants and to measure apparent affinities and kinetics of receptor binding, a Surface Plasmon Resonance based receptor binding assay was performed on a Biacore 2000 (GE Healthcare, Diegem, Belgium). Anti-FLAG-M2 monoclonal antibody (Sigma-Aldrich) was diluted at a concentration of 5 μg/ml in 10 mM sodium acetate pH 4.5 and covalently immobilized (approx 1500 RU) to a CM-5 sensor chip (GE Healthcare), using standard amine coupling chemistry according to manufacturer's guidelines (Amine coupling kit, GE Healthcare). […] Dissociation was monitored for five minutes. […] For each combination of FLAG-APRIL and BCMA- or TACI-Fc, the apparent kₐ, kd and KD were calculated from a global fit of binding curves from at least three separate experiments. […]

human BCMA-Fc [4] = molecular target: T1, human BCMA-Fc; assay: SPR (Biacore 2000), FLAG-APRIL captured by anti-FLAG M2, receptor-Fc injected, single cycle kinetics, 1:1 fit
Procedure: as §1
(§2) In order to further assess the binding properties of the mutants and to measure apparent affinities and kinetics of receptor binding, a Surface Plasmon Resonance based receptor binding assay was performed on a Biacore 2000 (GE Healthcare, Diegem, Belgium). Anti-FLAG-M2 monoclonal antibody (Sigma-Aldrich) was diluted at a concentration of 5 μg/ml in 10 mM sodium acetate pH 4.5 and covalently immobilized (approx 1500 RU) to a CM-5 sensor chip (GE Healthcare), using standard amine coupling chemistry according to manufacturer's guidelines (Amine coupling kit, GE Healthcare). The different FLAG-APRIL variants in the form of tissue culture supernatants were captured onto the chip via the FLAG-tag at 10 μl/minute for five minutes, giving capture levels ranging from 159 to 207 RU. As a reference lane, one of the flow cells was left free of soluble FLAG-APRIL, to control for any background binding. BCMA- or TACI-Fc were then injected for three minutes over all four flow cells at 30 μl/minutes at increasing concentrations (ranging from 1-50 nM) using the single cycle kinetics method at 25° C. Dissociation was monitored for five minutes. The resulting curves were fitted using a 1:1 Langmuir model using BIAevaluation software 4.1. For each combination of FLAG-APRIL and BCMA- or TACI-Fc, the apparent kₐ, kd and KD were calculated from a global fit of binding curves from at least three separate experiments. Non-specific binding in the reference cell was subtracted before curve fitting. Regeneration of the anti-FLAG antibody surface was carried out with a 10-minute injection at 30 μl/minute of a mixture of ⅓ volume of TBS pH 11.5, ⅓ volume of Ionic solution and ⅓ volume of water. The Ionic solution was comprised of KSCN (0.46 M), MgCl₂ (1.83 M), urea (0.92 M) and guanidine-HCl (1.83 M).

[5] = molecular target: T3, mouse BCMA-Fc (R&D Systems) (mouse; human, UniProt O88472 2-49, limits assumed); assay: as above
T3 construct: Bought; also called mBCMA-Fc; murine BCMA-Fc; not shown: Fc portion of human IgG1
T3 chain (looked up): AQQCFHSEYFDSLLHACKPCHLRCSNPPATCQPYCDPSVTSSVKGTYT
Procedure: as §1, §2

human TACI-Fc [6] = molecular target: T2, human TACI-Fc; assay: SPR (Biacore 2000), FLAG-APRIL captured by anti-FLAG M2, receptor-Fc injected, single cycle kinetics, 1:1 fit; SPR (BIAcore), mean ± error of fits; weak but measurable binding
Procedure: as §1
as §2, with “Regeneration of the anti-FLAG antibody surface was carried out with a 10-minute injection at 30 μl/minute of a mixture of ⅓ volume of TBS pH 11.5, ⅓ volume of Ionic solution and ⅓ volume of water. The Ionic solution was comprised of KSCN (0.46 M), MgCl₂ (1.83 M), urea (0.92 M) and guanidine-HCl (1.83 M).” left out

[7] = molecular target: T3, mouse BCMA-Fc (R&D Systems); assay: receptor-binding ELISA, mouse BCMA-Fc coated [TACI selective, Ms BCMA-Fc coated]
Procedure: (§3) The relative binding of the variants to either BCMA or TACI, was tested using a binding ELISA. The following proteins were used: human BCMA-Fc, human TACI-Fc (both generated in-house), mouse BCMA-Fc (R&D Systems, Abingdon, UK), mouse TACI-Fc (R&D Systems); in all cases the Fc portion is from human IgG1. BCMA-Fc and TACI-Fc were coated on 96-well Nunc Maxisorp plates (Thermo Fischer Scientific, Roskilde, Denmark) at concentrations of 1 μg/ml and 2 μg/ml, respectively, in 0.5 M sodium bicarbonate buffer pH 9.5, overnight at 4° C. Plates were then blocked with 5% BSA for one hour at 37° C. Soluble APRIL variants in the form of tissue culture conditioned medium were then added to the plate for two hours at 37° C. Following APRIL binding, plates were washed three times with PBS, 0.05% TWEEN®20. Bound APRIL was detected with 1 μg/ml of HRP-coupled anti-FLAG M2 and visualized with 2,2′-azino-bis(3-ethylbenzothiazoline-6-sulphonic acid (ABTS) (Sigma-Aldrich). The absorbance was read at 405 nm using a UV-VIS microplate reader (BioRad, Veenendaal, The Netherlands).

[8] = molecular target: T4, mouse TACI-Fc (R&D Systems) (mouse; human, UniProt Q9ET35 5-129, limits assumed); assay: receptor-binding ELISA, mouse TACI-Fc coated [TACI selective, Ms TACI-Fc coated]
T4 construct: Bought; also called mTACI-Fc; murine TACI-Fc; not shown: Fc portion of human IgG1
T4 sequence (looked up): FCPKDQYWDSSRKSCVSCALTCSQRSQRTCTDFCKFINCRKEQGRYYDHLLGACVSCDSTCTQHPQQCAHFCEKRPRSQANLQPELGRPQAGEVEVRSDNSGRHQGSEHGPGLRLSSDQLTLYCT
Procedure: as §3

human BCMA-Fc [9] = molecular target: T1, human BCMA-Fc; assay: receptor-binding ELISA, human BCMA-Fc coated, doubling dilutions of conditioned medium [BCMA-Fc coating]
Procedure: (§4) FIG. 2: Production and real binding properties of the APRIL mutants. (Panel A) Production of APRIL variants in conditioned medium by transient transfection of 293T cells. Supernatants (10 μl of each) were analyzed by anti-FLAG immunoblotting. Upper panel: mutants predicted to be selective for BCMA. Lower panel: mutants predicted to be selective for TACI. All mutants were checked more than three times following independent rounds of transfection to assess their expression. (Panels B and C) Receptor binding ELISA to compare binding of the predicted BCMA- and TACI-specific APRIL variants to human BCMA-Fc and TACI-Fc. Bars, from left to right, represent doubling dilutions of the conditioned media starting from undiluted media. Relevant APRIL variants are shown with dark grey bars, WT APRIL with black bars and other variants with light grey bars. This is representative of three separate experiments performed with independent APRIL-containing cell-conditioned media.
(§5) The relative binding of the variants to either BCMA or TACI, was tested using a binding ELISA. […] Bound APRIL was detected with 1 μg/ml of HRP-coupled anti-FLAG M2 and visualized with 2,2′-azino-bis(3-ethylbenzothiazoline-6-sulphonic acid (ABTS) (Sigma-Aldrich). The absorbance was read at 405 nm using a UV-VIS microplate reader (BioRad, Veenendaal, The Netherlands).

human TACI-Fc [10] = molecular target: T2, human TACI-Fc; assay: receptor-binding ELISA, human TACI-Fc coated, doubling dilutions of conditioned medium [TACI-Fc coating]
Procedure: as §4, §5

B1: APRIL T175D-D205K double mutant (ligand)
chain: AVLTQKQKKQHSVLHLVPINATSKDDSDVTEVMWQPALRRGRGLQAQGYGVRIQDAGVYLLYSQVLFQDVDFTMGQVVSREGQGRQETLFRCIRSMPSHPKRAYNSCYSAGVFHLHQGDILSVIIPRARAKLNLSPHGTFLGFVKL
notes: also called T175D-D205Y/K; not shown: FLAG tag
Q: Does B1 bind (human BCMA-Fc [1])?
A: no binding

Q: Does B1 bind (human TACI-Fc [2])?
A: no binding

B2: APRIL T175D-D205Y double mutant (ligand)
chain: AVLTQKQKKQHSVLHLVPINATSKDDSDVTEVMWQPALRRGRGLQAQGYGVRIQDAGVYLLYSQVLFQDVDFTMGQVVSREGQGRQETLFRCIRSMPSHPYRAYNSCYSAGVFHLHQGDILSVIIPRARAKLNLSPHGTFLGFVKL
notes: as for B1
Q: Does B2 bind (human BCMA-Fc [1])?
A: no binding

Q: Does B2 bind (human TACI-Fc [2])?
A: no binding

B3: APRIL T175D-R206E double mutant (ligand)
chain: AVLTQKQKKQHSVLHLVPINATSKDDSDVTEVMWQPALRRGRGLQAQGYGVRIQDAGVYLLYSQVLFQDVDFTMGQVVSREGQGRQETLFRCIRSMPSHPDEAYNSCYSAGVFHLHQGDILSVIIPRARAKLNLSPHGTFLGFVKL
notes: not shown: FLAG tag
Q: Does B3 bind (human BCMA-Fc [1])?
A: no binding

Q: Does B3 bind (human TACI-Fc [2])?
A: no binding

B4: APRIL-R206E (FLAG-tagged soluble variant) (ligand)
chain: AVLTQKQKKQHSVLHLVPINATSKDDSDVTEVMWQPALRRGRGLQAQGYGVRIQDAGVYLLYSQVLFQDVTFTMGQVVSREGQGRQETLFRCIRSMPSHPDEAYNSCYSAGVFHLHQGDILSVIIPRARAKLNLSPHGTFLGFVKL
notes: Used as conditioned medium; also called R206E-APRIL; not shown: FLAG tag
Q: How did the “fold selectivity for BCMA over TACI (comparison of affinities)” value (human BCMA-Fc [3]) turn out when B4 was run?
A: 25 fold

Q: And the Kd (human BCMA-Fc [4])?
A: 460 pM

Q: What about the koff (human BCMA-Fc [4]) of the same binder?
A: 0.00015 s⁻¹

Q: And the kon (human BCMA-Fc [4])?
A: 330000 M⁻¹ s⁻¹

Q: And the Kd [5]?
A: 95 pM

Q: And the koff [5]?
A: 0.00015 s⁻¹

Q: What about the kon [5] of the same binder?
A: 1.6e+06 M⁻¹ s⁻¹

Q: And the Kd (human TACI-Fc [6])?
A: 11000 pM

Q: And the koff (human TACI-Fc [6])?
A: 0.01 s⁻¹

Q: What about the kon (human TACI-Fc [6]) of the same binder?
A: 2e+06 M⁻¹ s⁻¹

B5: APRIL-R231A (FLAG-tagged soluble variant) (ligand)
chain: AVLTQKQKKQHSVLHLVPINATSKDDSDVTEVMWQPALRRGRGLQAQGYGVRIQDAGVYLLYSQVLFQDVTFTMGQVVSREGQGRQETLFRCIRSMPSHPDRAYNSCYSAGVFHLHQGDILSVIIPAARAKLNLSPHGTFLGFVKL
notes: also called receptor-dead R231A variant; not shown: FLAG tag
Q: Which results are given for B5?
A: binding result [7]: no binding; binding result [8]: no binding; binding result (human BCMA-Fc [9]): no binding (tested: undiluted conditioned medium); binding result (human TACI-Fc [10]): no binding (tested: undiluted conditioned medium)
